Reference: patent US20200376119A1 (Hoffmann-La Roche, published 2020)

Molecular target: T1, carcinoembryonic antigen (CEA) on MKN-45 tumor cells (human, UniProt P06731 35-702)
T1 sequence (looked up): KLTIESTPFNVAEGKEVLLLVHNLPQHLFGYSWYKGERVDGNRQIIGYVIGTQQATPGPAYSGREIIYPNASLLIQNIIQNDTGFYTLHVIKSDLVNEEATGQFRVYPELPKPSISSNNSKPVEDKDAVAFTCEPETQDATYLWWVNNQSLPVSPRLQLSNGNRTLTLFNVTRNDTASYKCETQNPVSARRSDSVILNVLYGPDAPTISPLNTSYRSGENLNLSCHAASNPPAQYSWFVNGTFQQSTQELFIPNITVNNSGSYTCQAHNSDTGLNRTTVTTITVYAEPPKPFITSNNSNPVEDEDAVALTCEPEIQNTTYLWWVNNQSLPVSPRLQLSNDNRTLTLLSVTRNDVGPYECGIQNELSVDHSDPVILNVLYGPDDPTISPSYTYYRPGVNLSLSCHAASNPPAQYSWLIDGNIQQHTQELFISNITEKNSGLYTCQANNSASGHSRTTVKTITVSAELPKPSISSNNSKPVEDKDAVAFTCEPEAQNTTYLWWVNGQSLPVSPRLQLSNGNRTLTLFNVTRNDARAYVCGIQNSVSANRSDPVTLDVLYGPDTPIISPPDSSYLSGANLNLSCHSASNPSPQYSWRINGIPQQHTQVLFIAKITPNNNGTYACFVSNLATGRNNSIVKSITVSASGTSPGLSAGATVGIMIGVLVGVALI
Test: cell-based or functional assay

B1: CEA TCB (bispecific antibody)
chain 1: QAVVTQEPSLTVSPGGTVTLTCGSSTGAVTTSNYANWVQEKPGQAFRGLIGGTNKRAPGTPARFSGSLLGGKAALTLSGAQPEDEAEYYCALWYSNLWVFGGGTKLTVLSSASTKGPSVFPLAPSSKSTSGGTAALGCLVKDYFPEPVTVSWNSGALTSGVHTFPAVLQSSGLYSLSSVVTVPSSSLGTQTYICNVNHKPSNTKVDKKVEPKSC
chain 2: not shown
chain 3: QVQLVQSGAEVKKPGASVKVSCKASGYTFTEFGMNWVRQAPGQGLEWMGWINTKTGEATYVEEFKGRVTFTTDTSTSTAYMELRSLRSDDTAVYYCARWDFAYYVEAMDYWGQGTTVTVSSASTKGPSVFPLAPSSKSTSGGTAALGCLVKDYFPEPVTVSWNSGALTSGVHTFPAVLQSSGLYSLSSVVTVPSSSLGTQTYICNVNHKPSNTKVDKKVEPKSCDKTHTCPPCPAPEAAGGPSVFLFPPKPKDTLMISRTPEVTCVVVDVSHEDPEVKFNWYVDGVEVHNAKTKPREEQYNSTYRVVSVLTVLHQDWLNGKEYKCKVSNKALGAPIEKTISKAKGQPREPQVCTLPPSRDELTKNQVSLSCAVKGFYPSDIAVEWESNGQPENNYKTTPPVLDSDGSFFLVSKLTVDKSRWQQGNVFSCSVMHEALHNHYTQKSLSLSPGK
chain 4: DIQMTQSPSSLSASVGDRVTITCKASAAVGTYVAWYQQKPGKAPKLLIYSASYRKRGVPSRFSGSGSGTDFTLTISSLQPEDFATYYCHQYYTYPLFTFGQGTKLEIKRTVAAPSVFIFPPSDEQLKSGTASVVCLLNNFYPREAKVQWKVDNALQSGNSQESVTEQDSKDSTYSLSSTLTLSKADYEKHKVYACEVTHQGLSSPVTKSFNRGEC
B1 was tested, and the “EC50 of tumor cell killing (LDH release, MKN-45 cells with human PBMCs, E:T 10:1, 24 h)” value was 0.615 nM and the “EC50 of tumor cell killing (LDH release, MKN-45 cells with human PBMCs, E:T 10:1, 48 h)” value was 0.362 nM.
